Consider four molecules from patent publication US20100068766A1, “COMPOSITION FOR CLEAVING AND/OR CONNECTING SINGLE STRAND DNA” (WASEDA UNIVERSITY, priority 2007, published 2010).

The target in assay [1] is T1, Ev1 protein (Homo sapiens, UniProt Q9UI08).
T1 construct: in accordance with the protocols used in purification of the entire-length Ev1 protein; 6xHis (N, cleaved yes); made in house; host or cells: E. coli BL21 (DE3) codon plus-RP, pET15b vector
T1 sequence (Q9UI08 1-418 isoform Q9UI08-2): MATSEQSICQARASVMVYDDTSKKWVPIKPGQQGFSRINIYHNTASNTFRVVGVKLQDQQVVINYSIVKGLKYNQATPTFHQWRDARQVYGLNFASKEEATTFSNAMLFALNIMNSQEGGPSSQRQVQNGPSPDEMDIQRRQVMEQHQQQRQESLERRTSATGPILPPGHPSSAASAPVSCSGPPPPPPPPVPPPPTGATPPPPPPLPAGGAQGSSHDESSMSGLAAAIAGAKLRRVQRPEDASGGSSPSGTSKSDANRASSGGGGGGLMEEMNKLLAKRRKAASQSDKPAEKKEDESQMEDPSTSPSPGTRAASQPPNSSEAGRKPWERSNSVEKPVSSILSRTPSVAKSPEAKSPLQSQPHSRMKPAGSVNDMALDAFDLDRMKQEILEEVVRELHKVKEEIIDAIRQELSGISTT
Briefly: Catenation of single-stranded DNA in coexistence of DNA topoisomerase type I protein and Ev1 protein. It counts as biochemical. The note with it: 20 μM φ×174 single-stranded DNA; 37° C., 1 hour; E. coli TopoI 0.05-5 U or 2.8 nM hsTopoI. The method, then:
A 20 μM φ×174 single-stranded DNA, a 4 μM Ev1 protein, and a DNA topoisomerase type I protein in each concentration or unit number (derived from Escherichia coli or a human) were added to 10 μl of a reaction solution (20 mM HEPES, 1 mM DTT, 100 μg/ml BSA, and 1 mM MgCl2). The obtained mixture was reacted at 37° C. for 1 hour. Thereafter, the sample was subjected to a deproteination treatment using 0.2% SDS and 1.3 mg/ml proteinase K. The obtained product was separated by 0.9% agarose gel electrophoresis, and a DNA band was then stained with SYBR Gold (Invitrogen) (FIG. 13).

For assay [2], the target named is T1, Ev1 protein. Briefly: Influence of Rad51B or Rad51 on catenation of single-stranded DNA by the Ev1 protein. In kind it is biochemical. The method, then:
Lanes 1 and 5 indicate the results of control experiments in which neither the Ev1 nor the Rad51B protein was used. Lanes 2 and 6 indicate the results of experiments that were carried out using a 4 μM Rad51B protein in the absence of the Ev1 protein. Lanes 3 and 7 indicate the results of experiments that were carried out using a 4 μM Ev1 protein in the absence of the Rad51B protein. Lanes 4 and 8 indicate the results of experiments that were carried out using a 4 μM Ev1 protein and a 4 μM Rad51B protein. Further, lanes 1-4 indicate the results of experiments that were carried out in the presence of ATP, and lanes 5-8 indicate the results of experiments that were carried out in the absence of ATP. […] Lanes 1 and 5 indicate the results of control experiments in which neither the Ev1 nor the Rad51 protein was used. Lanes 2 and 6 indicate the results of experiments that were carried out using a 4 μM Rad51 protein in the absence of the Ev1 protein. Lanes 3 and 7 indicate the results of experiments that were carried out using a 4 μM Ev1 protein in the absence of the Rad51 protein. Lanes 4 and 8 indicate the results of experiments that were carried out using a 4 μM Ev1 protein and a 4 μM Rad51 protein. Further, lanes 1-4 indicate the results of experiments that were carried out in the presence of ATP, and lanes 5-8 indicate the results of experiments that were carried out in the absence of ATP.
The Rad51B protein was mixed in a concentration of 0.5 to 8 μM with a 4 μM Ev1 protein, and the activity was then measured. Lane 1 indicates the results of a control experiment in which neither the Rad51B protein nor the Ev1 protein was added, and lane 8 indicates the results of a control experiment in which a 8 μM Rad51B protein was added and no Ev1 protein was added. Lanes 2-7 indicate the results of experiments in which the Rad51B protein was added in concentrations of 0 μM, 0.5 μM, 1.0 μM, 2.0 μM, 4.0 μM, and 8.0 μM, respectively, in the presence of 4 μM Ev1.
A φ×174 or M13 mp18 circular single-stranded DNA (20 μM) was incubated at 37° C. in 20 mM HEPES-NaOH (pH 7.5), 1 mM DTT, 1 mM MgCl2, and 0.1 mg/ml BSA. Thereafter, the sample was subjected to a deproteination treatment with 0.2% SDS and 1.3 mg/ml proteinase K. The obtained product was separated by 0.9% agarose gel electrophoresis, and a DNA band was then stained with SYBR Gold (Invitrogen).

B1: DNA topoisomerase type I protein derived from a human: hsTopoI (human, Jena Bioscience) (protein, UniProt P11387 2-765, looked up)
DNA topoisomerase 1: SGDHLHNDSQIEADFRLNDSHKHKDKHKDREHRHKEHKKEKDREKSKHSNSEHKDSEKKHKEKEKTKHKDGSSEKHKDKHKDRDKEKRKEEKVRASGDAKIKKEKENGFSSPPQIKDEPEDDGYFVPPKEDIKPLKRPRDEDDADYKPKKIKTEDTKKEKKRKLEEEEDGKLKKPKNKDKDKKVPEPDNKKKKPKKEEEQKWKWWEEERYPEGIKWKFLEHKGPVFAPPYEPLPENVKFYYDGKVMKLSPKAEEVATFFAKMLDHEYTTKEIFRKNFFKDWRKEMTNEEKNIITNLSKCDFTQMSQYFKAQTEARKQMSKEEKLKIKEENEKLLKEYGFCIMDNHKERIANFKIEPPGLFRGRGNHPKMGMLKRRIMPEDIIINCSKDAKVPSPPPGHKWKEVRHDNKVTWLVSWTENIQGSIKYIMLNPSSRIKGEKDWQKYETARRLKKCVDKIRNQYREDWKSKEMKVRQRAVALYFIDKLALRAGNEKEEGETADTVGCCSLRVEHINLHPELDGQEYVVEFDFLGKDSIRYYNKVPVEKRVFKNLQLFMENKQPEDDLFDRLNTGILNKHLQDLMEGLTAKVFRTYNASITLQQQLKELTAPDENIPAKILSYNRANRAVAILCNHQRAPPKTFEKSMMNLQTKIDAKKEQLADARRDLKSAKADAKVMKDAKTKKVVESKKKAVQRLEEQLMKLEVQATDREENKQIALGTSKLNYLDPRITVAWCKKWGVPIEKIYNKTQREKFAWAIDMADEDYEF
Regarding B1, the “effect on catenation of single-stranded DNA molecules in coexistence with the Ev1 protein” value with Ev1 protein [1] is on record as “promoted”.

B2: Rad51B: Rad51B protein purified by the previously reported method (Yokoyama et al.) (protein)
chain: MGSKKLKRVGLSQELCDRLSRHQILTCQDFLCLSPLELMKVTGLSYRGVHELLCMVSRACAPKMQTAYGIKAQRSADFSPAFLSTTLSALDEALHGGVACGSLTEITGPPGCGKTQFCIMMSILATLPTNMGGLEGAVVYIDTESAFSAERLVEIAESRFPRYFNTEEKLLLTSSKVHLYRELTCDEVLQRIESLEEEIISKGIKLVILDSVASVVRKEFDAQLQGNLKERNKFLAREASSLKYLAEEFSIPVILTNQITTHLSGALASQADLVSPADDLSLSEGTSGSSCVIAALGNTWSHSVNTRLILQYLDSERRQILIAKSPLAPFTSFVYTIKEEGLVLQAYGNS
As for B2, the “effect on catenation of DNA molecules by the Ev1 protein” value with Ev1 protein [2] (4 μM Rad51B, 4 μM Ev1 protein, absence of ATP) is “not significant”; with Ev1 protein [2] (4 μM added protein, 4 μM Ev1 protein, presence of ATP), “significantly promoted”.

B3: DNA topoisomerase type I protein derived from Escherichia coli: TopoI (E. coli, New England Biolabs) (protein, UniProt P06612 1-865, looked up)
DNA topoisomerase 1: MGKALVIVESPAKAKTINKYLGSDYVVKSSVGHIRDLPTSGSAAKKSADSTSTKTAKKPKKDERGALVNRMGVDPWHNWEAHYEVLPGKEKVVSELKQLAEKADHIYLATDLDREGEAIAWHLREVIGGDDARYSRVVFNEITKNAIRQAFNKPGELNIDRVNAQQARRFMDRVVGYMVSPLLWKKIARGLSAGRVQSVAVRLVVEREREIKAFVPEEFWEVDASTTTPSGEALALQVTHQNDKPFRPVNKEQTQAAVSLLEKARYSVLEREDKPTTSKPGAPFITSTLQQAASTRLGFGVKKTMMMAQRLYEAGYITYMRTDSTNLSQDAVNMVRGYISDNFGKKYLPESPNQYASKENSQEAHEAIRPSDVNVMAESLKDMEADAQKLYQLIWRQFVACQMTPAKYDSTTLTVGAGDFRLKARGRILRFDGWTKVMPALRKGDEDRILPAVNKGDALTLVELTPAQHFTKPPARFSEASLVKELEKRGIGRPSTYASIISTIQDRGYVRVENRRFYAEKMGEIVTDRLEENFRELMNYDFTAQMENSLDQVANHEAEWKAVLDHFFSDFTQQLDKAEKDPEEGGMRPNQMVLTSIDCPTCGRKMGIRTASTGVFLGCSGYALPPKERCKTTINLVPENEVLNVLEGEDAETNALRAKRRCPKCGTAMDSYLIDPKRKLHVCGNNPTCDGYEIEEGEFRIKGYDGPIVECEKCGSEMHLKMGRFGKYMACTNEECKNTRKILRNGEVAPPKEDPVPLPELPCEKSDAYFVLRDGAAGVFLAANTFPKSRETRAPLVEELYRFRDRLPEKLRYLADAPQQDPEGNKTMVRFSRKTKQQYVSSEKDGKATGWSAFYVDGKWVEGKK
Turning to B3, the “effect on catenation of single-stranded DNA molecules in coexistence with the Ev1 protein” value with Ev1 protein [1] is listed as “promoted”.

B4: Rad51 protein: Rad51 protein showing sequence similarity to Rad51B (protein, UniProt Q06609 2-339, looked up)
DNA repair protein RAD51 …: AMQMQLEANADTSVEEESFGPQPISRLEQCGINANDVKKLEEAGFHTVEAVAYAPKKELINIKGISEAKADKILAEAAKLVPMGFTTATEFHQRRSEIIQITTGSKELDKLLQGGIETGSITEMFGEFRTGKTQICHTLAVTCQLPIDRGGGEGKAMYIDTEGTFRPERLLAVAERYGLSGSDVLDNVAYARAFNTDHQTQLLYQASAMMVESRYALLIVDSATALYRTDYSGRGELSARQMHLARFLRMLLRLADEFGVAVVITNQVVAQVDGAAMFAADPKKPIGGNIIAHASTTRLYLRKGRGETRICKIYDSPCLPEAEAMFAINADGVGDAKD
Consider B4, for which the “effect on catenation of DNA molecules by the Ev1 protein” value in the assay with Ev1 protein [2] (4 μM Rad51, 4 μM Ev1 protein, regardless of presence or absence of ATP) is reported as “inhibited the catenation of DNA molecules by the Ev1 protein”.
